From patent US20240317847A1 (Bayer, published 2024)

T1: human IL2Ra (Peprotech, Germany, #200-02RC) (human, UniProt P01589 22-240)
T1 construct: Coated on the ELISA plate; also called hIL2Ra; IL-2 receptor alpha
T1 sequence (looked up): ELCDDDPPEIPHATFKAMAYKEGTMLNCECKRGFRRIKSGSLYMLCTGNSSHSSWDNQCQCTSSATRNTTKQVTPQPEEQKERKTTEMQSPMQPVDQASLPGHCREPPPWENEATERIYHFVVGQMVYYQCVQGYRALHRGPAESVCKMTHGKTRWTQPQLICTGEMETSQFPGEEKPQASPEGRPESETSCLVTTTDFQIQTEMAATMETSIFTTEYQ

T2: murine IL-11 (Invigate, e.g., lot #C210819-09) (mouse, UniProt P47873 22-199)
T2 construct: Bought protein; biotinylated where captured on streptavidin plates; also called mIL-11; mIL11
T2 sequence: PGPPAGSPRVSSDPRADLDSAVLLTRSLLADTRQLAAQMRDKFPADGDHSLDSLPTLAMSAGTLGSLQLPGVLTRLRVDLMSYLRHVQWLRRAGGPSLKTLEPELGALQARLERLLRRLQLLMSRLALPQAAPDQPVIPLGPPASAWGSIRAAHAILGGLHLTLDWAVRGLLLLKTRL


Assays:
[1] = target: T1, human IL2Ra (Peprotech, Germany, …); assay: direct binding ELISA on coated IL2Ra, antibody at 3.3E-7 [M]
Procedure: IL2RA (Peprotech, Germany, #200-02RC) was coated at 1 or 0 μg/ml (buffer only control) in 30 μl coating buffer (Candor, #113500) per well on a 384 well microtiter plate (Maxisorb, Nunc, #460518) over night at 4-8° C. After two washes with 50 μl/well washing buffer (PBS+0.05% Tween, pH 7.4), the plates were incubated for two hours at room temperature with 50 μl/well SmartBlock (Candor, #113500). After blocking, the plates were washed three times with washing buffer. […] After three additional washes, 30 μl anti mouse IgG HRP-conjugated antibody (Biotechne, HAF007), diluted 1:1000 in PBS+0.05% Tween (pH 7.4), were added per well and incubated for one hour. After three additional washes, a mixture of Amplex red (Invitrogen, #12222, 10 mM stock solution in DMSO) 1:1000 diluted in PBS and H2O2 (30%, Merck, #107209)) diluted 1:10000 in PBS were added as substrate with 30 μl per well and incubated for 20 min in the dark. Relative fluorescence was measured with a microtiter plate reader at 535/590 nm.

[2] = target: T2, murine IL-11 (Invigate, e.g., lot …); assay: Tri-complex ELISA: antibody titrated against 8 nM murine IL-11, 2 nM murine gp130-human-Fc and 2 nM murine IL11RA-murine-Fc
Procedure: In the Tri-complex ELISA format IL-11 antibodies are tested for their ability to inhibit the formation of a complex consisting of murine or human gp130-Fc fusion protein, with murine or human IL-11, and a murine IL11RA-Fc fusion protein. The assay format was adapted according to FIG. 18 (a, b), depending on whether murine or human IL-11 IgG antibodies were tested.
The assay was performed using High Binding microtiter plates (Greiner, #781077). In a first step, 25 μl of goat anti human IgG (Sigma, #12136), diluted 1:1000 in coating buffer (Candor, #121125) was coated on the plate at 4° C. overnight. Next day, the plate was washed one time with 50 μl PBST and then blocked with 50 μl SmartBlock (Candor, #113125) for one hour at room temperature (RT). […] After three additional washes of the coated and blocked microtiter plate with PBS-T, 25 μl of each mixture were added and the assay plate was incubated for one hour at room temperature. After three additional washes, anti-mouse-gp130 biotinylated antibody (R&D, #BAF468) or anti-human gp130 biotinylated antibody (R&D, #BAF228), both 1:1000 in 10% SmartBlock PBS-T, was added and incubated for 1 hour at RT. After three additional washes, a Streptavidin-Peroxidase conjugate (Sigma, #S5512) 1:1000 in SmartBlock PBS-T was added and incubated for one hour at room temperature. After a final three washes, AmplexRed (Fisher Scientific, A12222), 1/1000 in PBS, 0,003% H₂O₂, was added as substrate and incubated for 15 min at RT in the dark. Then, the fluorescence was measured with a plate reader at 535/595 nm. Signals from dose responses were used to calculate IC50 values using GraphPad Prism software.

[3] = target: T2, murine IL-11 (Invigate, e.g., lot …); assay: Di-complex ELISA: biotinylated murine IL-11 on streptavidin plate, antibody titrated against 2 nM canine IL11RA-human-Fc (competitor)
Procedure: In the Di-complex ELISA format anti IL-11 antibodies are tested for the ability to interfere with the formation of complexes consisting of immobilized murine IL-11 (Invigate, e.g., lot #C210819-09) or human IL-11 (Invigate, e.g., lot #C121021-19), and murine IL11RA-Fc fusion proteins or canine IL11RA-human-Fc fusion protein (FIG. 17a, b).
The assay is performed using streptavidin coated microtiter plates (Greiner bio-one, #781997). In a first step, 10 nM biotinylated mouse IL-11 (Invigate, Germany, e.g., lot #C210819-09) or human IL-11 (Invigate, Germany, e.g., lot #C121021-19) is coated in 25 μl PBS on the plate at 4° C. overnight. Next day, the plate is washed three times with 50 μl PBST and then blocked with 50 μl SmartBlock (Candor, #113125) for one hour at room temperature (RT). After additional three washes with PBST, 25 μl of a mixture of the murine anti IL-11 antibody and recombinant canine IL11RA-Fc fusion protein (Sino Biological, #70078-D02H) in PBS-T, 10% Smartblock are added simultaneously to the plate and incubated for one hour at RT. […] After three additional washes with PBS-T, 25 μl anti-human-POD (Sigma, #A0170) in PBS-T, 10% Smartblock is added and incubated for 1 hour at RT. After a final three washes with PBS-T, 25 μl AmplexRed (Fisher Scientific, A12222), 1/1000 in PBS, 0,003% H₂O₂, is added as substrate and incubated for 15 min at RT in the dark. Then, the fluorescence is measured with a plate reader at 535/595 nm. Signals from dose responses were used to calculate IC50 values (GraphPad Prism). Efficacy was calculated as [(signal measured at lowest antibody concentration−signal measured at the highest antibody concentration)×100] divided by (signal measured at lowest antibody concentration−signal measured in the absence of IL11Ra).

Binder | ratio of the signals versus the isotype control TPP-10159 [1] | Efficacy (%) [2] [%] | Efficacy (%) [3] [%] | IC50 [2] [nM] | IC50 [3] [nM]
TPP-18087 (antibody, mouse IgG1, V domains shown, mIgG1, Lambda) VH: EVQLLESGGGLVQPGGSLRLSCAASGFTFSHYDMNWLRQAPGKGLEWVGVISYDGSNKFYADFVKGRFTISRDNSKNTLYLQMNSLRAEDTAVYYCARTPGSHFDYWGQGTLVTVSS VL: QSVLTQPPSASGTPGQRVTISCSGSSSNIGNNAVNWYQQLPGTAPKLLIYYDDLLPSGVPDRFSGSKSGTSASLAISGLRSEDEADYYCSAWDDSLNGVVFGGGTKLTVLG | 2.4 | 5.5 | 13.4 | – | –
TPP-19528 (antibody, mouse IgG1, V domains shown, mIgG1, Lambda) VH: EVQLLESGGGLVQPGGSLRLSCAASGFTFSIYAMSWVRQAPGKGLEWVSSISDTGDRTYYADSVKGRFTISRDNSKNTLYLQMNSLRAEDTAVYYCARSNWGSLDYWGQGTLVTVSS VL: QSVLTQPPSASGTPGQRVTISCSGSSSNIGSNYVYWYQQLPGTAPKLLIYYDDLLPSGVPDRFSGSKSGTSASLAISGLRSEDEADYYCAAWDDSLSGRVFGGGTKLTVLG | 0.8 | 76.6 | 79 | 14 | 24
